Results on five molecules are retold here after patent US20030220254A1, “Composition and method for preparation of an oral dual controlled release formulation of a protein and inhibitor” (TEXAS TECH UNIVERSITY SYSTEM, priority 2002, published 2003).

Where two headings read alike, the source gives them in different places.

Data set [1] deals with T1, α-chymotrypsin (Bos taurus, UniProt P00766). The data set is described as follows: α-chymotrypsin mediated degradation of insulin with inhibitors (HPLC). In kind it is biochemical. Here is the method:
(§1) Stability studies in the presence of chicken and duck ovomucoid were conducted. […] The degradation profiles were generated in the presence of 0.1 μM α-chymotrypsin and 0.5 μM trypsin over a period of 60 minutes that served as controls. These concentrations were selected based on a reported study (Schilling & Mitra 1991).
Samples were taken at 0, 5, 15, 30 and 60 minutes and immediately diluted with cold 1% TFA/TRIS to reduce the pH to 2.5. The samples were analyzed at 4° C. by a reverse-phase HPLC method using a Varian Chromatography Workstation. […] Similar studies were performed with aprotinin.
The protocol used was the same as above with minor modifications. […] The degradation profiles were generated in the presence of α-chymotrypsin and DkOVM. The enzyme to inhibitor ratio used was 1:1 with respect to α-chymotrypsin.

The nature of another data set: in vitro. The note with it: male, Sprague Dawley, rat, pH 7.4. An excerpt: (§2) Male Sprague Dawley rats weighing between 200-300 g were used for the permeability experiments. The intestine was excised and the jejunum was isolated by a reported method (Asada et al. 1995). Briefly, the duodenal and ileal segments were removed from top and bottom (13 cm on either side) and the residual intestine was designated as jejunum. The respective segments were mounted in a Navicyte Side-By-Side diffusion apparatus with accessories such as water circulator, flowmeter and humidifier.
(§3) The segments were mounted without stripping on a preheated acrylic half-cell and the cell assembly was then placed in a heated block after joining the other half-cell. The exposed surface area was 1.78 cm^2 and the reservoir volume was 6 mL. The donor and receiver compartments were immediately filled with pre-warmed oxygenated Krebs bicarbonate buffer adjusted to pH 7.4 with NaOH or HCl. The composition of buffer used is shown in Table 11, which illustrates the composition of stock solutions used for preparation of Krebs Bicarbonate solution. The stock solutions can be made in 100 mL or 1 L volume and stored in a refrigerator for one month. For preparation of working buffer, 50 mL of each stock solution above is added to a 1 L volumetric flask containing 750 mL of water. The pH was adjusted to 7.4 when necessary. […]
(§4) For the marker studies, the concentration of ^14C mannitol in donor compartment was 3.5×10^−5 μM and that of H testosterone was 4×10^−2 μM. The integrity of the tissues was determined by calculating the permeability coefficient (Papp) of mannitol. […] Aliquots of 10 μL were taken from the mucosal side at the beginning and end of the experiment and analyzed by a HPLC method discussed later. […] The radioactive samples were analyzed by using a liquid scintillation counter.
(§5) The results of experiments performed at least in triplicate are presented as mean±SE. Statistical differences between permeability in the presence of DkOVM and CkOVM and the means were determined by one-way analysis of variance (ANOVA). […]

The subject of another data set is rat jejunum. The data set is described as follows: in vitro.
Description: as §2, §3, §4, §5

The target of data set [2] is T2, trypsin (Bos taurus, UniProt P00760).
T2 construct: gene PRSS1
T2 sequence (P00760 24-246): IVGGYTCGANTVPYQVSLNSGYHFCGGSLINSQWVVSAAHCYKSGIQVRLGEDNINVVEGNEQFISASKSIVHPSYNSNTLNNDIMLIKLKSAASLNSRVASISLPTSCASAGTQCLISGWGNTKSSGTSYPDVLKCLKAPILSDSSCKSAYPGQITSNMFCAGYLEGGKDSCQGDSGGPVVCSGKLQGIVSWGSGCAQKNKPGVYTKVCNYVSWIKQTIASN
As to the kind of experiment: trypsin mediated degradation of insulin with inhibitors (HPLC). It is filed as biochemical. To be noted: trypsin 0.5 μM. The method, then:
as §1
Samples were taken at 0, 5, 15, 30 and 60 minutes and immediately diluted with cold 1% TFA/TRIS to reduce the pH to 2.5. The samples were analyzed at 4° C. by a reverse-phase HPLC method using a Varian Chromatography Workstation. Plots of insulin remaining versus time were generated. […] Similar studies were performed with aprotinin.

In data set [3] the target is T2, trypsin. The data set is described as follows: Stability of sCT in the presence of trypsin and protease inhibitors. In kind it is biochemical. The method, then:
(§6) sCT solutions (50 μM) were incubated at 37° C. in 50 mM Tris buffer containing 0.1 mM calcium chloride (pH 8.0). Degradation profiles generated in the presence of 0.5 μM trypsin and 0.1 μM α-chymotrypsin served as controls. The concentrations were selected on the basis of a reported study (Schilling R. J. and Mitra A. K. 1991). DkOVM and TkOVM were evaluated at different enzyme-to-inhibitor ratios to evaluate their inhibition of sCT degradation. CkOVM and aprotinin were used at 1:1 enzyme-to-inhibitor ratio in order to compare the efficacy of various protease inhibitors used. sCT and enzyme solutions were incubated for 15 min at 37° C. before starting the experiments. Samples were taken after 0, 5, 15, 30 and 60 min and immediately diluted with cold 1% trifluoroacetic acid (TFA) to reduce the pH to 2.5. The samples were analysed at 4° C. by HPLC given below. Plots of sCT remaining against time were generated. […] (amount of sCT (%) remaining after 60 min) were used to compare the efficacy of the ovomucoids. Similar studies were performed with aprotinin. The study was also conducted by incubating 50 μM sCT solutions with 0.5 μM trypsin and 0.1 μM α-chymotrypsin added together and the efficacy of TkOVM was evaluated at various ratios.
(§7) sCT was analyzed by means of our validated HPLC method (Shah R B, et al., 2003). Briefly, a computer controlled Varian Chromatography workstation consisting of the following components was used: Two Dynamax SD-200 pumps, an AI-200A autosampler fitted with a 100 μl injection loop, a Dynamax UV-1 detector and Star 5.3 chromatography software. Room temperature was maintained for the column and chromatographic separations were carried out on a C-18 Vydac 218MS54 column (5 μm, 4.6×250 mm) with a pore size of 300 Å. 50 μl of samples were injected into the column which were analyzed by the reversed phase HPLC method. The mobile phase consisted of 0.05% v/v TFA-Water (A) and 0.05% v/v TFA-Acetonitrile (B). The gradient conditions were 20-35% B for 10 min, 35-37% B from 10th to 20th min and 37-20% B from 20th to 25th min at a flow rate of 1 ml/min. […] Concentrations of sCT were quantified from integrated peak areas and calculated by interpolation from an according standard curve.

Data set [4] addresses T1, α-chymotrypsin. The data set is described as follows: Stability of sCT in the presence of α-chymotrypsin and protease inhibitors. In kind it is biochemical. The method, then:
as §6, §7

In the next data set the test system is rat intestinal segments. As to the kind of experiment: Insulin transport across rat intestinal segments (side-by-side diffusion apparatus).
Description: as §2
The segments were mounted without stripping on a preheated acrylic half-cell and the cell assembly was then placed in a heated block after joining the other half-cell. The exposed surface area was 1.78 cm^2 and the reservoir volume was 6 mL. The donor and receiver compartments were immediately filled with pre-warmed oxygenated Krebs bicarbonate buffer adjusted to pH 7.4 with NaOH or HCl. The composition of buffer used is shown in Table 11, which illustrates the composition of stock solutions used for preparation of Krebs Bicarbonate solution. The stock solutions can be made in 100 mL or 1 L volume and stored in a refrigerator for one month. For preparation of working buffer, 50 mL of each stock solution above is added to a 1 L volumetric flask containing 750 mL of water. The pH was adjusted to 7.4 when necessary.
The mucosal buffer consisted of 40 mM mannitol and the serosal buffer consisted of 40 mM glucose. […] Mannitol equalizes the osmotic load between the mucosal and […] buffers and glucose helps to maintain tissue viability. The buffer was circulated by a gas lift (95%O2/5%CO2). The flow rate of gas lift was adjusted to 10±2 mL/min using a flow meter. The tissues were equilibrated for 10 min before the drug solution was added.
For the marker studies, the concentration of ^14C mannitol in donor compartment was 3.5×10^−5 μM and that of H testosterone was 4×10^−2 μM. The integrity of the tissues was determined by calculating the permeability coefficient (Papp) of mannitol. For α-chymotrypsin studies, the enzyme was added immediately after the addition of drug and inhibitor solution to achieve a final concentration of 0.5 μM. Samples (1 mL) were taken from the serosal side at various times up to 180 min and replaced with fresh transport medium. Aliquots of 10 μL were taken from the mucosal side at the beginning and end of the experiment and analyzed by a HPLC method discussed later. […] The radioactive samples were analyzed by using a liquid scintillation counter.
as §5

Data set [5] addresses T1, α-chymotrypsin. As to the kind of experiment: Insulin stability in Krebs bicarbonate buffer with α-chymotrypsin and DkOVM over 3 hours. In kind it is biochemical. To be noted: absence of DkOVM. The method, then: The degradation profiles were generated in the presence of 0.5 μM α-chymotrypsin over a period of 3 hours that served as controls. […] Samples were taken up to 180 min and immediately diluted with cold 1% TFA/TRIS to reduce the pH to 2.5. The samples were analyzed by the RP-HPLC method reported earlier.

Data set [6] relates to rat GIT segments. To be noted: cited from earlier work; for Papp × 10^7 cm/sec of insulin: Rat, Everted gut sac.
In data set [7] the test system is rat GIT segments. To be noted: cited from earlier work; for Papp × 10^7 cm/sec of insulin: Rat, Ussing technique.
For a further data set, the system named is apical epithelium. To be noted: Stoll et al. 2000; cited from earlier work.
The conditions of data set [8]: in vivo; cited from earlier work.
For data set [9] the following is noted: cited from earlier work.
Where [10] appears, read: chymotrypsin 0.1 μM, enzyme:inhibitor 1:1.

`O=C(O)CN(CCN(CC(=O)O)CC(=O)O)CC(=O)O` [EDTA]: the “% I60 min (insulin remaining at 60 minutes)” value on α-chymotrypsin [1] (chymotrypsin + 0.5 mM EDTA, no inhibitor) is listed as 0.32 ± 0.33%.

`C[C@H](CCC(=O)NCC(=O)[O-])[C@H]1CC[C@H]2[C@@H]3[C@H](O)C[C@@H]4C[C@H](O)CC[C@]4(C)[C@H]3C[C@H](O)[C@]12C.[Na+]` [NaGC, sodium glycocholate]: the “% I60 min (insulin remaining at 60 minutes)” value on α-chymotrypsin [1] (chymotrypsin + 30 mM NaGC, no inhibitor) stood at 4.66 ± 0.8%.

For `OC[C@@H](O)[C@@H](O)[C@H](O)[C@H](O)CO` [^14C Mannitol, D-[1-^14C] mannitol], the Papp (commonly the rate of passage across a membrane or cell layer, normalised by area and donor concentration) at 180 min in the data set “in vitro” amounted to 3.46 ± 0.251 ×10⁻⁶ cm/s. The “^14C Mannitol Permeability × 10^6 cm/sec” value in the data set with rat jejunum is listed as 3.465 ± 0.251 × 10^6 cm/sec. Also, the “^14C Mannitol Ratio” value with rat jejunum (male, Sprague Dawley, rat, 180 min, pH 7.4) was found to be 1.0.

Aprotinin: the “% I60 min (insulin remaining at 60 minutes)” value is given as 69.65 ± 6.04% on α-chymotrypsin [1] (setting [10]) and 97.99 ± 0.08% at trypsin [2] (enzyme:inhibitor 1:1). The “Amount (%) of sCT remaining at 60 min (I60)” value at trypsin [3] (trypsin 0.5 μM, enzyme:inhibitor 1:1) is given as 83.36 ± 8.92%; on α-chymotrypsin [4] (setting [10]) it was 35.87 ± 1.06%. Moreover, at trypsin [3] (trypsin:inhibitor 1:1), the “Ratio (half-life versus trypsin alone)” value is given as 199.34. Moreover, the “Ratio (half-life versus α-chymotrypsin alone)” value at α-chymotrypsin [4] (α-chymotrypsin:inhibitor 1:1) stood at 1.82.

For the molecule insulin, the “% I60 min (insulin remaining at 60 minutes)” value with α-chymotrypsin [1] (insulin 18 μM alone, no enzyme) was determined as 100%; with trypsin [2] (no inhibitor) it was 68.79 ± 1.85%. Moreover, in the data set with α-chymotrypsin [1] (α-chymotrypsin, control without inhibitor), the “insulin degraded in 60 minutes” value is reported as “more than 90%”. In the data set on rat intestinal segments (jejunum), the “cumulative amount of insulin permeated at the end of three hours” value turned out to be 0.04±0.023 IU. Also, the “Permeability of insulin (P × 10^7 cm/sec)” value is listed as 0.0 × 10^7 cm/sec with rat intestinal segments (rat jejunum, insulin 100 μM + α-chymotrypsin 0.5 μM + DkOVM 0.0 μM) and 0.922 ± 0.168 × 10^7 cm/sec with rat intestinal segments (rat jejunum, insulin 100 μM alone). In addition, in the data set on rat intestinal segments (rat jejunum, insulin alone), the Papp of insulin was 0.922±0.168 ×10^−7 cm/sec. In addition, the “insulin (%) remaining at the end of 3 hours” value with α-chymotrypsin [5] is reported as “negligible”. Moreover, the “Papp × 10^7 cm/sec of insulin” value in the data set on rat GIT segments [6] (Duodenum) was 0.78 ± 0.54 × 10^7 cm/sec; in the data set on rat GIT segments [6] (Ileum) it was 1.54 ± 0.29 × 10^7 cm/sec; in the data set on rat GIT segments [6] (Jejunum), 1.385 ± 0.265 × 10^7 cm/sec; with rat GIT segments [7] (Colon) it was 4.05 ± 1.09 × 10^7 cm/sec; with rat GIT segments [7] (Duodenum) it was 4.85 ± 0.99 × 10^7 cm/sec; with rat GIT segments [7] (Jejunum) it was 12.27 ± 1.73 × 10^7 cm/sec. Further, the “reported Papp of insulin from rat jejunum” value in the data set on rat GIT segments [6] (Schilling & Mitra 1990) is 5±2 ×10^−7 cm/sec; in the data set on rat GIT segments [7] (Asada et al. 1995) it was 12.27±1.73 ×10^−7 cm/sec. For the same molecule, the “apical epithelial permeability of insulin” value in the data set with apical epithelium is 0.032 ×10⁻⁶ cm/s. Moreover, in [8], the “insulin reaching the liver via the portal vein that undergoes degradation” value is given as “About 50%”. The peak time is 5 to 60 min in data set [9] (pulmonary route) and 6 to 150 min in data set [9] (subcutaneous route).
